This series in a line: soluble on expression in E. coli; label from the status in PepcDB or PDB records.
“MEHIYKLLRSFKWDCAKYLYKNTLNFKVKRLRRKKNIRVLFAVAESATWKSDCLYKAMAEHPRFTPSILVLPDEQKEKTLLKEEVDSCFNLFCRKGYACTYPYQNGKLINIRKKLKPDIIFYQKPYTFYPKSLLYYKNMNALFCYTNYAFHSLLTDWANDNEFFRLMWQNYYENESANVDLKKKFAGIFSNIVVTGLPVTDLFLTEKHEDKWKKTDKSRKRIIWAPHFSISDGGCLNYSTFLSIAEELLEFIKNTQLPVQMAFKPHPLLKSQLYNYSSWGKEKTDEYYAAWEFLPNAQLETNEYVDLFMTSDAMIHDCGSFTIEYHHTLKPVMYLVNGKEHTATMNSFAKAAYDLHYKGQTIQDIRNFIECTVLENSDYLLEKRKNFFKSYLLPPHNQSATENIIHAILGTGYYTEKKQR”: the “soluble on expression in E. coli” value is “not soluble”.
For the sequence “MGHHHHHHSHMSPDQFLLTVSALQHARNSGEFAYPCRPQTEITDVWGPSISYPRKVLNFKGKSIQRAVDRLRLSNPPIDVKRTSIPLEIQKLQPNLKISLHSPRAQSTIPEPMIIRSRFSGSLKGGDQVTSSIERAVCSTGPLTSMQVIKPNRMLAPQVGTATLSLKKERPRIYTALDPFRVNAEFVLLTVKEEKEHQEAKMKEYQARESTGVVDPGKASKAAWIRKIKGLPIDNFTKQGKTAAPELGQNVFI”, the “soluble on expression in E. coli” value was “soluble”.
The entry for “MTTTLKAIVRKPRTDGLYAVYIRIVHNRKPGYIKTNKIVDADHISKDNEPTDPVVNEYCSMLVRQYTDRLNRANTTLWSVSEIIEYLLKTDEEVCFSDYSRMFIRQMRLDGHERNAKNYQLAVAHLERYMGTTRVMFGHLTAAVLKKWIESLSKTHRAKEMYPTNVRMIFRSAIADMNDDEKGIQRIKFDPWVKVQIPKSEPSEKLAISAEECREFFNRPLPRTKMLSSLPELGRDVALLSLCLGGINTVDLYNLKKSDYHDGIIGYKRAKTKHSRKDEAYIEMRVEPFIQDTFNKYLSEEEDEFLFTFHQRYGNTDSFNANVNIGIRKICMDMGMTNKEDFYCFYTFRHTWATIAQNDCNANLYEVAFGMNHSHGFKVTRGYVKVDFTPAWALNARIIDFIFFSNKPSKQGLAKDLDESGDKMFRISAKMMIYARAYFKGEVIAEFTDIGFNNVDEVLSRIVKMFPKDIPVGCTVQIRLTNCDNHKEVVYERSKGKGF” is “not soluble”.
As for “MRLEDEIKQVKAFKNDYNKAVVNLIFTYNWLESSSKAFFKDFDLTSQQFNILRILKGQHPNPSTINLLRDRMLDKMCDASRLVERLRIKGLVERSQASSDKRAVDIFITKKGEELLAKIEVEFPAFEEKLHTLSAEEIVVFNNLLDKLRG”, the “soluble on expression in E. coli” value is recorded as “not soluble”.
In the case of “MTESFAELFEASQANLAKLKPGSIVTGTVVEVRGDVVVINAGLKSEGIVPIEQFRNDAGEIDVGVGDQVKVALDSIENGFGETVLSREKAKRAMVWDELEEALEKNETITGRISGKVKGGFTVDIKDVRAFLPGSLVDVRPVRDPAYLEGKELEFKLIKLDRKRNNVVVSRRAVVESEHSEEREQLMDKLQEGAILKGVVKNLTDYGAFVDLGGIDGLLHITDMAWKRVRHPSEVVNVGDELDVRVLKFDRERNRVSLGLKQLGEDPWDNIARRYPANSRVFGKVSNVTDYGAFVEIEPGVEGLVHVSEMDWTNKNVNPSKVVQVGDEVEVMVLDVDEERRRISLGMKQVAANPWETFAATHKKNDKVSGQIKSITDFGIFIGLDGGIDGLVHLSDISWNTTGEDVVRNYKKGDTLEAVVLAVDPERERISLGVKQLEQDPFGQYMASNPKGSKVEGVVREVDAKGATIDLADGIEGYVAARDIANERVDDATQHLKVGDKIEAKFVGMDRKGRTLQLSIKAKDDAEMREVLEEYQSASGGTTQLGALLRAQLNSNKSELEHHHHHH” it was “soluble”; in that of “MSQDIFTRDNLLRVENPNILVGESPVKYRVEEIYLDGKLKKAEDVDEEEKSYGIFMHSLVLSNYAEVMNVSHKKLDVIRDEKEKAIFYFTEEKGFDKSLIESIVPKVEAFSLNEDKLKVSTHIINEKMRIISRGTPDELLKRCSYILLDSKIVKKTRKIYREINRVLNDMINRCCTVYALAIKDVSKTDIITNVDAYIDGMTLVALIGMCRA”, “soluble”.
The entry for “MSLNYDWIKTRATFDEPKAAVIDPFKGTEWTYQDLNIRAENLANYLQEQGVQRGDVVGIFSPNDVALLDLLFASFKLGAVYLPINWRLKTQEIESVIADSDVKLIFYSAKHLSSLEGIADELIHMDIDSKTYDDIVDPTHHRPFTTVSVEGDDLASLMYTSGTTGLPKGVMFSYDSFVNNPINTALTYKVYASYTTIISTPMFHVLGFNDLTIPLLMAGGTLVLQRYFNGESLNDLMAQYQPNFLIQIPTMYYAMLVADNFDLKNFANIEFLIQGGAAPLPTVQKKFVSLGIPIITGYGLTEAPLVSVNTAANNERKPASIGQPVMFTDTRIFDDNFEEVQVGEIGELGVRGNNVTPGYWNKPEETAKAFSGEFFLTGDLAKIDEDGDVYIVDRRKEMIITGGENVLPSEVERVLSEHPLVAQGVVVGYDSPKYGESVSAAVVLTEDDPDFEQKLDAHMREHIAGYKIPRLYLKLTHIPLNSTSKPDKLEIQKYMNDKAQKQDQSKDEGHHHHHH” is “not soluble”; for “MSLGLHITDQQVHRYMSQRRHHTQAVAAAKAGISERSARRIDKNPQLPSQKKRERHWRTRPDPLEQIWPRVEELLKIAGILSVTIFETVQDEFGEAAVPDGVRRTLERRIARWRALNGGEKEIFFPQHHEIGRQGLLDFTVADDLHVTIAGQRFDHRLFHFRLASSGWEDSAVVLGGESFTALSEHLQDALWKLGGVPAELRSDSLSAAYKNLDADAQRDFTRNYEALCRHYGMTPTRNNKGVAHENGSIEAPNGHLKRRMDQALRRRSSRDFPSIEDYRRFVDQEVAKQNRRRARLMDDERRVLKSLPPKRTTDFTLVSADVTRNSTISVDRVTYSVPSRLIGYRLHAHLYDDRVEFFLGPDQVMTADRVRVKHAERGHNIDFRHFIGNLKRKPQALRYLVYRNALFPTHAYTRAWQALDAALDARQACRDMVALLDIAANGNCVDALALRIEAALDRGKLPNVAKLKSEFLPTVRSRVDVTIPPPDFAGYNHLLANAQEGHHHHHH” it is “not soluble”; for “MTDLNRTALPSRTDGTVEKTDTLVVGAGQAGVAMSEHLSRLGVPHLVLERNRIAEAWRSGRWDSLVANGPAWHDRFPGMEFDIDPDGFPGKDQVAAYFEAYAKRFDAPIRTGVEVRKVVRNVGRPGFTVDTSAGTIEANRVVAATGPFQRPVIPPIAPRDERIRQIHSAHYYNPQQLPEGAVLVVGAGSSGVQIADELQRAGRQVYLSVGAHDRPPRSYRNRDFCWWLGVLGEWDAEVAKPGREHVTIAVSGARGGHTVDFRALAHQGVTLVGLTESFVDGVATFRPDLAENLARGDENYLALLDAADAYIARNGLDLPEEPEARRRLPDPQCVTDPILELDLAEAGVGSIIWATGYAVDFGWLQVDAFDRDGKPRHQRGVSSEPGVYFIGLPWLSRRGSSFIWGVWHDARHVADHIAIQRKYLAYRDAAQRQEQDRASQAPQTSLQEVS” it is “not soluble”.
In the case of “MRIGINVGSTQVDAVILSKHGKVVAASETVIQDDETVLAIKEALVSLIRYLRDTDEVRGVFIGATSECQEVKLGKGLAKTGLIRLNRYQSQIQPLMKWPKALSDHVVYTQSVEIGEELDWFNYFQESLARLKEAEVEAIAVVGAFSPMDNCSEQLVKESLNYHLPSIPVTMSHTIGSIGFLERENAAVLNAVLSKKMKNTLKGVKDFLSSLGFHCPLWVTRNDGCLMTIEEAIEFPVLTLGSGSANSFRGGAFLAEERSCIVVHVSEGITKIGTMIQERFEESHSQTYVFGIPTNLRMPHSIVLPLGEEKQGALGHDIRHGNPSEKTKREEVLISERKGISLAERHAGSSASNLEDQQEMWSTLKQSGLDREAMTQYAERVNDSIEELQIYDQELPIVVVGSGAPCMMQRLQSQTREVVAPFGYQRCHAVGACLGMVSAEVDQVYHLKDQTKAEVIEEAKEKAIKEAERKGAFPDTISIEQVEEYPFDYLQGEVIRIRVKAVGQVKDSLEHHHHHH” it was “not soluble”; in that of “LESKNMTWYRMLLVTPVRQGEKVRKFFLHAFHSFEYRALSSGTEEEGLVLTVNDSERTEEIFSCCEKMKAFCKNFLGETPQILCSRAYQQGDDSSLLYEQTKAYAKGRSAEQILIVPQNAEEGDGTDTLLKRVQTYIRNHYTERLTLADIAEAVHVSSSYLSRFYKLKAGENLFDTINSLRVEKAKELLLRGDKKIYEIAALTGFEDTAYFSKVFKKYAGCPPKEYEQSGGRNL”, “not soluble”.
Take “MDIGTQLKFLRNRRGWTMQEVADRIGKNDSTYSGYETNKRKPNAEVLVQLADIFDTTTDFILGRTENPNGLNFNVKDFLDQGRLHSDGVEITDEQAEIANVLLRQLLQRKQQ”: the “soluble on expression in E. coli” value is given as “not soluble”.
The entry for “MKTNVIIDGDACPVVNSVIELTKGTGIFVTILRSFSHFSQQIQPEHVKIVYVDDGPDAVDYKIVELASNNDIVITQDYGLASLLIDKVHTVMHHKGNIYHSNNIQSLLDQRYLNAQIRRRGGRHKGPPPFTTEDRLKFEHAFRKIINQILEHHHHHH” is “soluble”; for “MTYTVGMYLAERLVQIGLKHHFAVAGDYNLVLLDQLLLNKDMKQIYCCNELNCGFSAEGYARSNGAAAAVVTFSVGAISAMNALGGAYAENLPVILISGAPNSNDQGTGHILHHTIGKTDYSYQLEMARQVTCAAESITDAHSAPAKIDHVIRTALRERKPAYLDIACNIASEPCVRPGPVSSLLSEPEIDHTSLKAAVDATVALLEKSASPVMLLGSKLRAANALAATETLADKLQCAVTIMAAAKGFFPEDHAGFRGLYWGEVSNPGVQELVETSDALLCIAPVFNDYSTVGWSAWPKGPNVILAEPDRVTVDGRAYDGFTLRAFLQALAEKAPARPASAQKSSVPTCSLTATSDEAGLTNDEIVRHINALLTSNTTLVAETGDSWFNAMRMTLPRGARVELEMQWGHIGWSVPSAFGNAMGSQDRQHVVMVGDGSFQLTAQEVAQMVRYELPVIIFLINNRGYVIEIAIHDGPYNYIKNWDYAGLMEVFNAGEGHGLGLKATTPKELTEAIARAKANTRGPTLIECQIDRTDCTDMLVQWGRKVASTNARKTTLALEHHHHHH” it is “soluble”; for “MGEVVKLVTFLGLGKYEESEIKINGNLLDGCVKNDDSQDIFCVRQSIFPLALIEYLNHIGKQVETIFFLTKTVKESKTWDECRRFLRSNIKDFEIPERRIFK” it is “not soluble”.
The entry for “MTEPLFVITDRPISVEDVMKKVMRPEAGAVAVFAGTVREWTNGKRTLFLQYEAYVSMAEKMLAQIGAEIAEKWPGAKTAITHRIGRLEIGDIAVVIAVSSPHRAEAYEANRYAIERIKQIVPIWKKEQWEDGSAWVGDQLETTAYPSGKPEVSEE” is “soluble”; for “SYETSQHNLDAVEAVLSRLQKQTGEMAAYMVPVGYRALCVSQRESMQALRCSFVQGQSQPLLRGASSKVMLAYMPAARCEKILRYFGEDPTLDKWQSEFEKIRRHGYAVSTSEIDPGVSGISAPVMKGSKLIGAISVMAPAHRVESNKQRIILHVLQAARALPPER” it is “not soluble”.
The entry for “MARLNITFSPQAFEDYKYFQQNDKKMVKKINELLKSIDRNGALEGIGKPEKLKSNLTGYYSRRINHEHRLVYTVDDNHIKIASCKYHY” is “not soluble”; for “MVDMAVTPVALLEASHLHYHVQQQALINDVSLHIASGEMVAIIGPNGAGKSTLLRLLTGYLSPSHGECHLLGQNLNSWQPKALARTRAVMRQYSELAFPFSVSEVIQMGRAPYGGSQDRQALQQVMAQTDCLALAQRDYRVLSGGEQQRVQLARVLAQLWQPQPTPRWLFLDEPTSALDLYHQQHTLRLLRQLTRQEPLAVCCVLHDLNLAALYADRIMLLAQGKLVACGTPEEVLNAETLTQWYQADLGVSRHPESALPQIYLRQ” it is “not soluble”.
